Experimental findings from patent publication US20040204348A1 are described below.

By Kd is commonly meant the constant that tells how readily two partners part at equilibrium.

This assay concerns the target recombinant soluble uPAR (suPAR), Q03405. Briefly: SPR (Biacore 3000), competition with scuPA. To be noted: remark: other sources report otherwise. On the technique in general: In SPR one partner is held on a chip, and binding of the other changes the refractive index at the surface.

Bridges are numbered along the chain shown (N, C = ends). L15 (R1 : phenyl) = linker L15: -CO-CH2-NH-CO-CH2-CH2-CH(CO-NH-CH2-CO-NH-R1)-NH- with R1 = phenyl (anilide)

Sequence of recombinant soluble uPAR (suPAR), Q03405 (Q03405 23-299 limits assumed): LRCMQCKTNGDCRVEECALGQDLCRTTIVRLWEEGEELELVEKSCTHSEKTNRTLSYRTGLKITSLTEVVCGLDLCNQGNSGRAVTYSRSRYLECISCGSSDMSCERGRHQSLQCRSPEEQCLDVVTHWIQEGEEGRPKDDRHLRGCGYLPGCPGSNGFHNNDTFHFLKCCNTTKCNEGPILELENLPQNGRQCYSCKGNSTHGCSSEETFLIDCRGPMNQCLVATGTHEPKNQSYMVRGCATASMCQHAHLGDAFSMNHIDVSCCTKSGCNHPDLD

B1: Å36 (peptide)
peptide: VSNKYFSNIHW
modifications: linker N-C via L15 (R1 : phenyl); also: cyclised by linker L15 between X1 N and X11 carbonyl
In the case of B1, the Kd worked out at 4 nM.
